From publication PMC12578283 (Protein & Cell, 2025) come the findings set out here.

The assay deals with p15 protein of African swine fever virus (African swine fever virus, UniProt Q65179).

B1: 1G9 (antibody, V domains shown)
VH: QVQLQQPGPELVRPGASVKLSCKASGYTFTTYWMKWVRQRPGQGLEWIGTIDPSDNEIHYNQIFKDKATLTVDKSSSTAYMHLSSLTSEDAAVYYCARWDGTSYYAMDYWGQGTSVTVSS
VL: DVVMSQTPLSLPVSLGDQASISCRSSQSLVHSNGNTYLHWYLQKPGQSPKLLIYKVSNRFSGVPDRFSGSGSGTDFTLKISRVEAEDLGVYFCSQSTHVPPTFGGGTKLEIK
Take B1: the binding result was “binds”.

B2: 4C7 (antibody, V domains shown)
VH: QVQLHQPGSVLVRPGTSVKLSCKASGYTFTSSWMNWAKQRPGQGLEWIGEIHPRSGNTNYNENFKGKATLTVDTSSSTAYVDLSSLASEDSAVYYCARSGGTYYYAMDSWGQGTSVTVSS
VL: DIQMTQTTSSLSASLGDRVTISCRASQDISNYLNWYQQKPDGTVKLLIYYTSRLHSGVPSRFSGSGSGTDFSLTISTLEQEDFATYFCQQANTSPYTFGGGTKLEIN
For B2, the binding result is given as “binds”.
